# According to PMC7010609 (2020):
# B1: Xenopus laevis Flag-FANCI wild type S557D; S560D; S566D; S597D; S618D; S630D (protein)
# chain: MDQKILSLAAEEQNDGLQSYLQNLKETELSEIITKHAVKGKDCGALLRGVFKGSPCSHDVAVRRRLAVYRHCIQLVESGDLQREVASEIMGLLMLEVHHFPGASLIELANLFADAVKAGTLSNGKSLDLFPTVLTALSSKESLAYGKGELTGEEFKKQLINSLCSSRWDPQSVIFLTSMFRDVSLSAEELQFVVEKVLRMLSKLDLQEMPPLVYQLLLLSAKGSKKNIVEGIITIFNDLDQKQLVQQENSESLDLEDATIPQDQLHHVEGTIILHIVFAIKLDQELGRELLKYLKAGQQGDSSKILCPFSAALLLSVSRIHRFQEQVFDFLKSTILRDYKDLQFHQSSKFLQDLVPQPVCVSSILLETVKNSVYGWDHVTQGLVELGFILMDSFGPKAAFGNKVVELISVHSRTPSQQACQLGSRILLETFKVHEPIRSEILEQVLNRVITKAATPVTHFIDLLSDIVVSAPLILQNSSSKVTEAFDHLSFLPLTTVQGLLKAVQPLLKISMSMRDSLILVLRKAMFSSQIDARKSAVAGFLLLLRNFKVLGSLSSDQCDQAIGADQIQVDVHMRYNAAANEAFCLEILGSLRRCLDQQADVRLMLYEGFYDVLRRNDQLASSVMQTLLDQLKRYYEPEPDLLPPLKLEGCITAQGDHIFLQEPLAHLLCCIHHCLQWYKSSLQQHRNPDEDDDDDDQTGCQQDLNDIMESITRRMIKCDLEDFELDKSADFSLASGVGVKNNIYAVLVMGICEVLIEYNFIIANFSKSKFEDILGLFKCCSKLSDILKEKAAKGRQPGNNKTARSLISMTFVSTLLTALFRDSTRSHEESLSILRANVDFMRYSVCVALQKIQQLEETGVTDGPDGQNSEKMFRSLCEITRVLMWRYTSIPAAAENPGKKDKGKTISLLCLEGLLRVFNTVQQRYPSKIPQFLTALDALGDEDEEGSREINVTEKAAFQIKQFQRSLINQLSGGEDDFNSKEALLLVSILSTLSRLLAPSSQQFVQMLSWTVKICKETNIEDVQFCKGIMNLLFSLHVQFKSPVSVLRELCQDIHGHLGDIDQDIEVEKQSHFATVSLKTAAPTVTLLVLGQAAKVLEEVDWLIIKLKGLLGSEKLSTEDLTQTSNARVPIEKAIILQLGTLLTACHELVQTALPAGSCTDTLLKELAKMYTILTSVVKYYLQICSSHGGQISARLEKLVKLSGSHLTPQCYAFITYVQNIHSESLSLAAEKKKKKKEEALTVTSAKILRDTKPIPNLIFAIEQYEKFLIHLSKKSKVNLMQYMKLSTSRDFRINAATLDAALQEKGSEDEENEPDNEQAVTEEESQEPKKKRRRK
# B2: Xenopus laevis Flag-FANCI S6D phosphomimic mutant (natural protein)
# chain: MDQKILSLAAEEQNDGLQSCLQNLKETELSEIITKHAVKGKDCGALLRGVFKGSPCSHDVAVRRRLAVYRHCIQLVESGDLQREVASEIMGLLMLEVHHFPGASLIELANLFADAVKAGTLSNGKSLDLFPTVLTALSSKESLAYGKGELTGEEFKKQLINSLCSSRWDPQSVIFLTSMFRDVSLSAEELQFVVEKVLRMLSKLDLQEMPPLVYQLLLLSAKGSKKNIVEGIITIFNDLDQKQLVQQENSESLDLEDATIPQDQLHHVEGTIILHIVFAIKLDQELGRELLKYLKAGQQGDTSKILCPFSAALLLSVSRIHRFQEQVFDFLKSTILRGYKDLQFHQSSKFLQDLVPQPVCVSSILLETVKNSVYGWDHVTQGLVELGFILMDSFGPKAAFGNKVVELISVHSRTPSQQACQLGSRILLETFKVHEPIRSEILEQVLNRVITKAATPVTHFIDLLSDIVVSAPLILQNSSSKVTEAFDHLSFLPLTTVQGLLKAVQPLLKISMSMRDSLILVLRKAMFSSQIDARKSAVAGFLLLLRNFKVLGSLSSDQCDQAIGADQIQVDVHMRYNAAANEAFCLEILGSLRRCLDQQADVRLMLYEGFYDVLRRNDQLASSVMQTLLDQLKRYYEPEPDLLPPLKLEGCITAQGDHIFLQEPLAHLLCCIHHCLQWYKSSLQQHRNPDEDDDDDDQTGCQQDLNDIMESITRRMIKCDLEDFELDKSADFSLASGVGVKNNIYAVLVMGICEVLIEYNFIIANFSKSKFEDILGLFKCYSKLSDILKEKAAKGRQPGNNKTARSLISMTFVSTLLTALFRDSTRSHEESLSILRANVDFMRYSVCVALQKIQQLEETGVTDGPDGQNSEKMFRSLCEITRVLMWRYTSIPAAAENPGKKDKGKTISLLCLEGLLRVFNTVQQRYPSKIPQFLTALDALGDEDEEGSREINVTEKAAFQIKQFQRSLINQLSGGEDDFNSKEALLLVSILSTLSRLLAPSSQQFVQMLSWTVKICKETNIEDVQFCKGIMNLLFSLHVQFKSPVSVLRELCQDIHGHLGDIDQDIEVEKQSHFATVSLKTAAPTVTLLVLGQAAKVLEEVDWLIIKLKGLLGSEKLSTEDLTQTSNARVPIEKAIILQLGTLLTACHELVQTALPAGSCTDTLLKELAKMYTILTSVVKYYLQICSSHGGQISARLEKLVKLSGSHLTPQCYAFITYVQNIHSESLSLAAEKKKKKKEEALTVTSAKILRDTKPIPNLIFAIEQYEKFLIHLSKKSKVNLMQYMKLSTSRDFRINAATLDAALQEKGSEDEENEPDNEQAVTEEESQEPKKKRRRK
# modifications: Full length assumed, since construct limits are not printed. Flag tag left out. The L homeolog is assumed; if it has no entry or the checks fail, try fanci.S or fanci. Expressed in Hi5 insect cells.
# Tests used:
# [1] = molecular target: T1, Xenopus laevis StrepII-FANCD2; assay: Biolayer interferometry (BLItz); conditions: chain shown with the change; StrepII-FANCD2-loaded biosensors in 20 ng/mL solution; FANCI 62.5-1000 nM
# T1 chain: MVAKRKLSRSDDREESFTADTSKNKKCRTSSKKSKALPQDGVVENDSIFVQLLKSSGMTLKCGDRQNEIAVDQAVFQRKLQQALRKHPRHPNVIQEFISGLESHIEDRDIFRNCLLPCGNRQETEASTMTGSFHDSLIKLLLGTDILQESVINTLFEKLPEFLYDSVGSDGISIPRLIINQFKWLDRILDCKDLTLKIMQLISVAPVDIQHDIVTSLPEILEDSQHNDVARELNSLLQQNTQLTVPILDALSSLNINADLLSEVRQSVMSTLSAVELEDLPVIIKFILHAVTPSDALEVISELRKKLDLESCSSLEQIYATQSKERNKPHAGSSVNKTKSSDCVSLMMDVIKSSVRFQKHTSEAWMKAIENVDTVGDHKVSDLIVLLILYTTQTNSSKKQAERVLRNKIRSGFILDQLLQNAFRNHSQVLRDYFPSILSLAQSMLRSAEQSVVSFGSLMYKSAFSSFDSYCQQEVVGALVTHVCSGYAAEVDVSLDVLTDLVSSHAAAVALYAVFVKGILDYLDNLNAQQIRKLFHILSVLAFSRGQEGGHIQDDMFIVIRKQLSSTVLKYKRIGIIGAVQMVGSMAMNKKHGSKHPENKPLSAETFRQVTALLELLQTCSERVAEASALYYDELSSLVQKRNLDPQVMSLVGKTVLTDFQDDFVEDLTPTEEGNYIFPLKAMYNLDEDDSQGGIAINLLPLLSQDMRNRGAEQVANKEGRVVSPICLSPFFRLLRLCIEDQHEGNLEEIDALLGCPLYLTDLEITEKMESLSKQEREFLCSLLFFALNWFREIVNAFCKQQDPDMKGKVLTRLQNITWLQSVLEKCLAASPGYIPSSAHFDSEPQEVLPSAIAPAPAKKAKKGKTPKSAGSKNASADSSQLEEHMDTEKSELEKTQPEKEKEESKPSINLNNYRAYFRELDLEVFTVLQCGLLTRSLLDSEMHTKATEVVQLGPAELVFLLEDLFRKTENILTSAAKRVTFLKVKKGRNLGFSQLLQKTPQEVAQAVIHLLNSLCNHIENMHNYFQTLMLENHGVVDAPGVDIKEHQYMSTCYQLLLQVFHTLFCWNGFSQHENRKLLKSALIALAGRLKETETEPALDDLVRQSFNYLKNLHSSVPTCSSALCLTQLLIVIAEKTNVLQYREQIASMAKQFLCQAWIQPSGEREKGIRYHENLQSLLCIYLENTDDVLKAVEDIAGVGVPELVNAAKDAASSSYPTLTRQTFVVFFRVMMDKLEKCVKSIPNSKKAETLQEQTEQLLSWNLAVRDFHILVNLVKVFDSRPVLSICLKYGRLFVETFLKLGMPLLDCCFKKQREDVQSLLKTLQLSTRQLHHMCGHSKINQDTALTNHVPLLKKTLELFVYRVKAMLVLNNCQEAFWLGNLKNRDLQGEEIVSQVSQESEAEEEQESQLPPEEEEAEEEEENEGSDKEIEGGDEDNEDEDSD
# [2] = molecular target: T2, Xenopus laevis StrepII-FANCD2 (Xenopus laevis); assay: BLI
# T2 chain: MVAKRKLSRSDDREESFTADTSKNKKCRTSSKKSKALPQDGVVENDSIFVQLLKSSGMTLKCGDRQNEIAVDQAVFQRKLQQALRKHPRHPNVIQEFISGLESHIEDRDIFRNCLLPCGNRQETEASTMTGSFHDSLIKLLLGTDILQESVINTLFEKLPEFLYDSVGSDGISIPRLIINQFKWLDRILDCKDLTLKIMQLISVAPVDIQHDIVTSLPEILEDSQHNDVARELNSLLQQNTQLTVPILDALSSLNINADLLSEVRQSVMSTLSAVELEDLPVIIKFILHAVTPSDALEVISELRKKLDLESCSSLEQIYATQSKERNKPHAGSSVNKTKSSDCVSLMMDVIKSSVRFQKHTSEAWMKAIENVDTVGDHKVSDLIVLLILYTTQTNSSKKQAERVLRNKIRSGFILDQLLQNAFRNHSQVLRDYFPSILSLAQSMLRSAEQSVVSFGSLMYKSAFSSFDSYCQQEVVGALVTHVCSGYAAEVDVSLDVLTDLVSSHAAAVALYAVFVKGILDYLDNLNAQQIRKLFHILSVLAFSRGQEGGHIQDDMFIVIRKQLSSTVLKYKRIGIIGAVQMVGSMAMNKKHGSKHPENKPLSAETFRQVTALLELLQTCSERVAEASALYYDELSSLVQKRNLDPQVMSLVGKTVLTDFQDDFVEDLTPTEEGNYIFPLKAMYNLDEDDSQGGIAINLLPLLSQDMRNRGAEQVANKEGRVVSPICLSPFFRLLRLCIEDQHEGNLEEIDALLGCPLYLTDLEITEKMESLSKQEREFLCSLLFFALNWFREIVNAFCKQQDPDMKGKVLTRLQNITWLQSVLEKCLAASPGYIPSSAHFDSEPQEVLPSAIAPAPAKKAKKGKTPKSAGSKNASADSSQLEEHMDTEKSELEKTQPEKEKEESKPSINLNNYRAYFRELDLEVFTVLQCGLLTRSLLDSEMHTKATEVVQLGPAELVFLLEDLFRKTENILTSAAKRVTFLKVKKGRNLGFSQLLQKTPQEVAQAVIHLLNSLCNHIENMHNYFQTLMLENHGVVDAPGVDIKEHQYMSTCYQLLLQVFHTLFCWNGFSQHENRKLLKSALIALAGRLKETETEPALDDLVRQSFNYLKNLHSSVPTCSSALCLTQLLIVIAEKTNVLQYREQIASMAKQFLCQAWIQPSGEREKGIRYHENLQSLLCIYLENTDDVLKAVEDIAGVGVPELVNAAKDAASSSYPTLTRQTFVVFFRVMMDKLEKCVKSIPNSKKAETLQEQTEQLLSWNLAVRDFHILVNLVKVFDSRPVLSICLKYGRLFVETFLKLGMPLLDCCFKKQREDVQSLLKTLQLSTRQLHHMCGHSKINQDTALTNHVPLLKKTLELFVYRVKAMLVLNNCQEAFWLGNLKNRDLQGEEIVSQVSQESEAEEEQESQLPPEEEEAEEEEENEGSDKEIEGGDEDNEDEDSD
# [3] = molecular target: T2, Xenopus laevis StrepII-FANCD2; assay: BLI
Binder,Kd [1] [nM],koff [1] [s⁻¹],Kd [2] [nM],koff [3] [s⁻¹]
B1,136,0.0061,–,–
B2,–,–,136,0.0061
